The values that follow come from doi:10.1101/2020.06.25.170399 (bioRxiv, 2020).

This experiment addresses T1, γ subunit of human NAD-dependent isocitrate dehydrogenase (IDH3) (human, UniProt P51553 40-393).
T1 sequence: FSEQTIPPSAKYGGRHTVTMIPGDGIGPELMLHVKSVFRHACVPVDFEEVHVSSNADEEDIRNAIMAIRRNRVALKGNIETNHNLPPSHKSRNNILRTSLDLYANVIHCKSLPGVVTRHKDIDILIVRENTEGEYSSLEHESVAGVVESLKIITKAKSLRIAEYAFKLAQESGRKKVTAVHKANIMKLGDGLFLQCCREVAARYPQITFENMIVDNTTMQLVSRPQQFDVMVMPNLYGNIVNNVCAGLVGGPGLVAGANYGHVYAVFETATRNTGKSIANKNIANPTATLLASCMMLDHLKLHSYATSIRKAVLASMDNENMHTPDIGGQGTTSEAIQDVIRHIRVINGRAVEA
Nature of the experiment: SEC-MALS. Background: SEC sorts molecules by how far they enter the pores of the column.

B1: α subunit of human NAD-dependent isocitrate dehydrogenase (IDH3) (natural protein)
chain: TGGVQTVTLIPGDGIGPEISAAVMKIFDAAKAPIQWEERNVTAIQGPGGKWMIPSEAKESMDKNKMGLKGPLKTPIAAGHPSMNLLLRKTFDLYANVRPCVSIEGYKTPYTDVNIVTIRENTEGEYSGIEHVIVDGVVQSIKLITEGASKRIAEFAFEYARNNHRSNVTAVHKANIMRMSDGLFLQKCREVAESCKDIKFNEMYLDTVCLNMVQDPSQFDVLVMPNLYGDILSDLCAGLIGGLGVTPSGNIGANGVAIFESVHGTAPDIAGKDMANPTALLLSAVMMLRHMGLFDHAARIEAACFATIKDGKSLTKDLGGNAKCSDFTEEICRRVKDLD
On to B1, for which the binding result was “binds”.
